What was measured:
[1] = system: NK cells; conditions: upon treatment; cited from earlier work
[2] = biological target: biotinylated-mPD1 (mouse) (UniProt Q02242); assay: whole cell ELISA, scFv displayed on E. coli Nissle, biotinylated mPD1, streptavidin-HRP, TMB
[3] = biological target: Biotinylated IgG; assay: whole cell ELISA, scFv displayed on E. coli Nissle, biotinylated IgG as negative control, streptavidin-HRP, TMB
[4] = biological target: IgG (coating control); assay: ELISA, IgG coated plate, E. coli extract, anti-V5-HRP, TMB
[5] = biological target: IgG (coating control); assay: ELISA, IgG coated plate, E. coli extract (1/2), anti-V5-HRP, TMB
[6] = system: anti-mCD40L antibody; assay: CD40 ELISA binding assay, plate coated with anti-mCD40L antibody; conditions: clarified supernatant
Method: (§1) Cultures were diluted 1:100 in LB and grown shaking (200 rpm) to an optical density of 0.8, at which time the cultures were cooled down to room temperature and anhydrous tetracycline (ATC) was added to cultures at a concentration of 100 ng/mL, to induce expression of mCD40L1 and mCD40L2.
(§2) After 18 hours of induction, cells were spun down, and supernatant was collected. To generate cell free medium, the clarified supernatant was further filtered through a 0.22 micron filter to remove any remaining bacteria and placed on ice.

[7] = biological target: T1, mCD40 (Mus musculus, UniProt P27512); assay: CD40 ELISA binding assay, plate coated with mCD40; conditions: clarified supernatant; for CD40 ELISA signal, coating material IgG / CD40 ELISA signal, coating material PBS: control coating
T1 sequence (P27512 20-289): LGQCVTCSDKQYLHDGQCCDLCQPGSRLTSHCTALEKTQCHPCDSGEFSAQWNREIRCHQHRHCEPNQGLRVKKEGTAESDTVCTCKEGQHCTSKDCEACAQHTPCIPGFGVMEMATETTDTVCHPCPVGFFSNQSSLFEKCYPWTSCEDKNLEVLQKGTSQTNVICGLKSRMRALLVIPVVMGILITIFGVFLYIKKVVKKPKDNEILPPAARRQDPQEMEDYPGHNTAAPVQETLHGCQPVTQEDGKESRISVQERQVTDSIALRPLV
Method: as §1, §2

[8] = biological target: T2, recombinant SIRPα (Rndsystems) (mouse, UniProt P97797 32-373); assay: flow cytometry competition on CT26 cells
T2 construct: also called recombinant mSIRPα
T2 sequence (looked up): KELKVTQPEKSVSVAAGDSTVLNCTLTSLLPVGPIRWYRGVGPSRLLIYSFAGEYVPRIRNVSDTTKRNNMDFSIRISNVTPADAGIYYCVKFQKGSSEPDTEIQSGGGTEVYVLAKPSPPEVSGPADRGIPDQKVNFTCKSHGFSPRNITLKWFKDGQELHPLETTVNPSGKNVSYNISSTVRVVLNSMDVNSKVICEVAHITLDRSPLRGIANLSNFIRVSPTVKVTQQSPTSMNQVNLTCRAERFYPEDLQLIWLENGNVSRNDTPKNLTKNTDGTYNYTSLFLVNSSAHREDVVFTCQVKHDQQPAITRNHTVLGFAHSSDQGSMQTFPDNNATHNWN

[9] = biological target: T3, secreted mCD40L1 (47-260) (mouse, UniProt P27548 47-260); assay: ELISA, mCD40 coated plate
T3 construct: range 47-260; also called Secreted CD40-L1; SYN3366 supernatant
T3 sequence (looked up): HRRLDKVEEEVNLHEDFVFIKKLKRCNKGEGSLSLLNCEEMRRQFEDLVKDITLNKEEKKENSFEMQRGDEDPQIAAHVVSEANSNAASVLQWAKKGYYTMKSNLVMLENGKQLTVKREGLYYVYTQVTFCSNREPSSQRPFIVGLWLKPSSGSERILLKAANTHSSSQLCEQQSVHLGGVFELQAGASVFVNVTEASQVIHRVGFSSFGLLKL

[10] = biological target: T4, PD1 (Mus musculus, UniProt Q02242); assay: ELISA binding assay of bacterial extracts (J43-scFv); conditions: α-V5-HRP
T4 construct: purchased Rndsystems
T4 sequence (Q02242 25-288): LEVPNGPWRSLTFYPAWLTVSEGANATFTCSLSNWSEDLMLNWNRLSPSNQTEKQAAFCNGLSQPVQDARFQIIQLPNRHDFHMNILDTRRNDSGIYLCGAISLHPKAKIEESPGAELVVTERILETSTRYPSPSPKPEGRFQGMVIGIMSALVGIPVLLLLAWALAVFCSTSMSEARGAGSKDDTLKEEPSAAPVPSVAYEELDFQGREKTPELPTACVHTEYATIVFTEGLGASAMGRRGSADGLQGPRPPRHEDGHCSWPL
Method: E. coli comprising either tet-inducible J43-Anti-PD1-scFv-V5 or wild type controls were grown overnight in LB medium. […] Same amount of tetracycline was added to wild type control cultures.

[11] = biological target: T5, PD1 on mouse EL4 cells (Mus musculus, UniProt Q02242); assay: Flow cytometric analysis of anti-PD1-scFv binding to EL4 cells, PDL1 competition
T5 construct: EL4 are a mouse lymphoma cell line which expresses PD1 on its cell surface; endogenous in cells; host or cells: EL4 (mouse lymphoma)
T5 sequence (Q02242 25-288): T4 sequence (Q02242 25-288)
Method: To determine whether anti-PD1-scFv expressed in E. coli binds to surface PD1 on mouse EL4 cells, flow cytometric analysis was performed using EL4 cells. EL4 are a mouse lymphoma cell line which expresses PD1 on its cell surface.
EL4 cells were grown in Dulbecco's Modified Eagle's Medium (DMEM) with 10% FBS. Cells were spun down, supernatant was aspirated, pellet was resuspended in 1 nil D-PBS, transferred into chilled assay tubes (1×10^6 cells), and washed 2-3 times in D-PBS with 0.5% BSA. Cells were resuspended in PBS with 0.5% BSA, to which the purified scFv-V5 and anti-V5-FITC antibody were added and incubated for 1 hour at room temperature. Negative control left out scFv-V5. Cells were resuspended in 0.5 ml PBS and analyzed on a flow cytometer.
EL4 are a mouse lymphoma cell line which expresses PD1 on its cell surface.
EL4 cells were grown in Dulbecco's Modified Eagle's Medium (DMEM) with 10% FBS and 1% Penicillin-Streptomycin Cells were spun down, supernatant was aspirated, pellet was resuspended in 1 ml D-PBS, transferred into chilled assay tubes (1×10^6 cells), and washed 3 times in D-PBS. Cells were resuspended in D-PBS with 0.5% BSA, to which the purified scFv-V5 and anti-V5-FITC antibody were added and incubated for 1 hour at room temperature. Negative control left out secreted J43-scFv-V5. Cells were then resuspended in 0.5 ml PBS and analyzed on a flow cytometer. Results are shown in (FIG. 64).
Next, a competition assay was conducted to determine whether PDL1 could inhibit the binding of the anti-PD1-scFv secreted by the genetically engineered bacteria from binding to murine PD1. EL4 cells were grown and flow cytometry protocol was conducted essentially as described above except that PDL1 was added at various concentrations ([…]) during the incubation of the secreted anti-PD1-scFv-V5. Rat-IgG was used as a negative control of secreted scFv.

[12] = biological target: IgG (coating control); assay: ELISA, IgG coated plate, bacterial supernatant
[13] = biological target: T6, mouseCD47 (recombinant) (mouse) (UniProt Q61735); assay: ELISA, mCD47 coated plate, bacterial supernatant
T6 sequence (looked up): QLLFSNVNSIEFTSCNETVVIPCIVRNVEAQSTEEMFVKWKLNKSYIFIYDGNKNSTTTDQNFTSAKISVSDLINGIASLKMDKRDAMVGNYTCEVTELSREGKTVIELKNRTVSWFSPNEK

In the case of “recombinant human IL-15: recombinant human IL-15 of a first-in-human clinical trial”, the “expansion of NK cells” value [1] is listed as 10 fold and the “proliferation of γδT cells and CD8+ T cells” value [1] is listed as “significantly increased”.

“LppOmpA-FLAG-J43scFv-V5-HIS displayed on E. coli Nissle SYN2798” gave an OD450 [2] of 0.421 and an OD450 [3] of 0.133.

For J43-Anti-PD1-scFv-V5, the ELISA signal at 450 nm [4] was 0.13 and the ELISA signal at 450 nm [5] was 0.11.

B1: Secreted CD40-L1: mCD40L1 (47-260), extracellular portion of mCD40L, secreted by SYN3366 (protein)
chain: T3 sequence (looked up)
modifications: left off: small tags and cut ends
In the case of B1, the “CD40 ELISA signal, coating material Anti-mCD40L” value [6] is reported as 0.394, the “CD40 ELISA signal, coating material mCD40” value [7] is reported as 0.231 and the “CD40 ELISA signal, coating material IgG” value [7] is reported as 0.052. For the same molecule, the “CD40 ELISA signal, coating material PBS” value [7] was 0.049.

B2: CD47 on mouse CT26 cells (receptor, UniProt Q61735 19-303, looked up)
chain: QLLFSNVNSIEFTSCNETVVIPCIVRNVEAQSTEEMFVKWKLNKSYIFIYDGNKNSTTTDQNFTSAKISVSDLINGIASLKMDKRDAMVGNYTCEVTELSREGKTVIELKNRTVSWFSPNEKILIVIFPILAILLFWGKFGILTLKYKSSHTNKRIILLLVAGLVLTVIVVVGAILLIPGEKPVKNASGLGLIVISTGILILLQYNVFMTAFGMTSFTIAILITQVLGYVLALVGLCLCIMACEPVHGPLLISGLGIIALAELLGLVYMKFVASNQRTIQPPRNR
notes: whole, on cells; also called murine CD47 on CT26 cells
B2: binds [8].

B3: mCD40 (receptor, mouse, UniProt P27512 24-193, looked up)
chain: VTCSDKQYLHDGQCCDLCQPGSRLTSHCTALEKTQCHPCDSGEFSAQWNREIRCHQHRHCEPNQGLRVKKEGTAESDTVCTCKEGQHCTSKDCEACAQHTPCIPGFGVMEMATETTDTVCHPCPVGFFSNQSSLFEKCYPWTSCEDKNLEVLQKGTSQTNVICGLKSRMR
B3: binds [9].

B4: Secreted CD40-L2: mCD40L2 (112-260), soluble form of mCD40L, secreted by SYN3367 (protein)
chain: MQRGDEDPQIAAHVVSEANSNAASVLQWAKKGYYTMKSNLVMLENGKQLTVKREGLYYVYTQVTFCSNREPSSQRPFIVGLWLKPSSGSERILLKAANTHSSSQLCEQQSVHLGGVFELQAGASVFVNVTEASQVIHRVGFSSFGLLKL
modifications: left off: small tags and cut ends
In the case of B4, the “CD40 ELISA signal, coating material Anti-mCD40L” value [6] is reported as 0.825, the “CD40 ELISA signal, coating material mCD40” value [7] is reported as 0.639 and the “CD40 ELISA signal, coating material IgG” value [7] is reported as 0.052. For the same molecule, the “CD40 ELISA signal, coating material PBS” value [7] was 0.05.

B5: J43-scFv-V5: anti-PD1 single-chain variable fragment based on J43 monoclonal antibody, V5 tagged, expressed in E. coli (protein)
scFv: MQLEVRLLESGGGLVKPEGSLKLSCVASGFTFSDYFMSWVRQAPGKGLEWVAHIYTKSYNYATYYSGSVKGRFTISRDDSRSMVYLQMNNLRTEDTATYYCTRDGSGYPSLDFWGQGTQVTVSSGGGGSGGGGSGGGGSYELTQPPSASVNVGETVKITCSGDQLPKYFADWFHQRSDQTILQVIYDDNKRPSGIPERISGSSSGTTATLTIRDVRAEDEGDYYCFSGYVDSDSKLYVFGSGTQLTVLGKGELNSKLEGKPIPNPLLGLDSTRTGHHHHHH
For B5, the “Signal intensity at 450 nm, IgG coating” value ([10]; bacterial extract (1/2)) was 0.11, the “Signal intensity at 450 nm, PBS coating” value ([10]; bacterial extract (1/2)) was 0.10 and the “Signal intensity at 450 nm, mPD1 coating” value ([10]; bacterial extract (1/2)) was 0.90. For the same molecule, the “Signal intensity at 450 nm, IgG coating” value ([10]; bacterial extract) was 0.13, the “Signal intensity at 450 nm, PBS coating” value ([10]; bacterial extract) was 0.11 and the “Signal intensity at 450 nm, mPD1 coating” value ([10]; bacterial extract) was 1.41. For the same molecule, the “PDL1 competition against binding to mPD1 on EL4 cells” value ([11]; PDL1 added at various concentrations) was “PDL1 competed in a dose dependent manner”, the “binding to surface PD1 on EL4 cells (flow cytometry)” value ([11]; purified scFv, anti-V5-FITC) was “population shift is observed” and the “staining of EL4 cells with different amounts of secreted scFv” value ([11]; secreted scFv, increasing amounts) was “dose-dependent staining of the EL4 cells was observed”. The “binding to PD1 on EL4 cells (flow cytometry)” value ([11]; secreted scFv, anti-V5-FITC) was “population shift is observed”.

B6: secreted anti-mCD47 scFv (scFv, from a related filing)
scFv: QVKLLQSGAALVKPGASVKMSCQASGYSFTDYWVTWVKQSHGQSLEWIGEIYPSNTVTNFNDNFKGKATLTVDKSTSTAYMELSRLTSEDSAIYYCTRIGNSGYRVGWFIYWGQGTLVTVLSGGGGSGGGGSGGGGSDTVLTQSPALAVSPGERVTISCKASESVSSHMHWYQQKPGQQPKLLIYKASNLASGVPARFSGSGSGTDFTLTIDPVEADDTATYFCQQGWNGPFTFGAGTRLELKRADAAGSGELGGSGKPIPNPLLGLDSTGSGHHHHHH
With B6 the ELISA signal [12] was 0.067 and the ELISA signal [13] was 0.527.

Source: US20200149053A1, “MICROORGANISMS PROGRAMMED TO PRODUCE IMMUNE MODULATORS AND ANTI-CANCER THERAPEUTICS IN TUMOR CELLS” (Synlogic Operating Company, Inc., priority 2017, published 2020)
